How the values were obtained:
[1] = target: β1Cx32 (connexin 32), full-length, membrane-integrated (UniProt P08033); test: sucrose gradient velocity sedimentation
[2] = target: α1Cx43 (connexin 43), full-length, membrane-integrated (UniProt P08050); test: sucrose gradient velocity sedimentation

Row | Substance | stoichiometry N [1] | stoichiometry N [2]
1 | β1Cx32 (connexin 32), full-length, membrane-integrated (from UniProt P08033 1-283) (natural protein) | 6 | 
2 | α1Cx43 (connexin 43), full-length, membrane-integrated (from UniProt P08050 1-382) (natural protein) |  | 6
